Reference: patent US10059928B2, “Polymerases” (Illumina Cambridge Limited, priority 2005, dated 2018)
Positions count from the first letter of the chain named. Names may count otherwise.

B1: wild-type 9°N-7 polymerase: Wild-type family B DNA polymerase from Thermococcus sp. 9°N-7 (protein, UniProt Q56366 1-775, looked up)
DNA polymerase: MILDTDYITENGKPVIRVFKKENGEFKIEYDRTFEPYFYALLKDDSAIEDVKKVTAKRHGTVVKVKRAEKVQKKFLGRPIEVWKLYFNHPQDVPAIRDRIRAHPAVVDIYEYDIPFAKRYLIDKGLIPMEGDEELTMLAFDIETLYHEGEEFGTGPILMISYADGSEARVITWKKIDLPYVDVVSTEKEMIKRFLRVVREKDPDVLITYNGDNFDFAYLKKRCEELGIKFTLGRDGSEPKIQRMGDRFAVEVKGRIHFDLYPVIRRTINLPTYTLEAVYEAVFGKPKEKVYAEEIAQAWESGEGLERVARYSMEDAKVTYELGREFFPMEAQLSRLIGQSLWDVSRSSTGNLVEWFLLRKAYKRNELAPNKPDERELARRRGGYAGGYVKEPERGLWDNIVYLDFRSLYPSIIITHNVSPDTLNREGCKEYDVAPEVGHKFCKDFPGFIPSLLGDLLEERQKIKRKMKATVDPLEKKLLDYRQRAIKILANSFYGYYGYAKARWYCKECAESVTAWGREYIEMVIRELEEKFGFKVLYADTDGLHATIPGADAETVKKKAKEFLKYINPKLPGLLELEYEGFYVRGFFVTKKKYAVIDEEGKITTRGLEIVRRDWSEIAKETQARVLEAILKHGDVEEAVRIVKEVTEKLSKYEVPPEKLVIHEQITRDLRDYKATGPHVAVAKRLAARGVKIRPGTVISYIVLKGSGRIGDRAIPADEFDPTKHRYDAEYYIENQVLPAVERILKAFGYRKEDLRYQKTKQVGLGAWLKVKGKK
B2: R743A: 9°N-7 YAV C223S exo- polymerase with alanine substitution at Arg743 in the thumb subdomain (protein)
chain: B1 DNA polymerase with D141S, E143S, C223S, L408Y, Y409A, P410V, A485L, R743A
modifications: Codon optimised thumb mutant polymerase
notes: 9°N-7 YAV C223S exo- polymerase with alanine substitution at Arg743 in the thumb subdomain

Key:
DNA = conditions: wild-type enzyme; Southworth et al. 1996; read-out: Kd (affinity for DNA); cited from earlier work
[1] = tested on: surface-coupled A-template hairpin (oligo 815); assay: NUNC tube assay using crude protein preparation: incorporation of ffTTP into surface-coupled hairpin; format: biochemical; conditions: crude enzyme, 5 μM ffT-N3-647, 45° C., 30 minutes; samples not normalised for concentration
Protocol: Small 5 ml cultures of the mutant enzymes (along with a culture of YAV C223S exo- for direct comparison) were taken through a quick purification as outlined in WO 2005/024010 up until the heat treatment step. At this point, the samples were considered to be sufficiently pure to test their activity.
The buffers for each of the crude preparations were exchanged into enzymology buffer (50 mM Tris pH 8.0, 6 mM MgSO4, 1 mM EDPA, 0.05% Tween20) using an S300 gel filtration spin-column. The samples were not normalised for concentration. The test employed was a simple incorporation of ffTTP into surface-coupled A-template hairpin. 2 pmoles of 5′-amino oligo 815 (5′-[…] […]-3′) (SEQ ID NO: 17) was coupled to a NUNC-nucleolink strip according to the manufacturers protocol.
Once washed, each well was incubated with a 20 µl aliquot of a crude enzyme preparation (identity of enzyme listed below) and 5 µM ffT-N3-647. The strip was then incubated at 45° C. for 30 minutes. The experiment was performed in duplicate. Upon completion of the 30 minute incubation, wells were washed with 3×100 µl of high salt wash buffer (10 mM Tris pH 8.0, 1M NaCl, 10 mM EDTA) and then 3×100 µl of MilliQ water. Strips were scanned on a typhoon fluorescence imager CY5 filter, PMT=450 V).
The fluorescence density is proportional to the amount of ffTTP incorporation—the darker the well, the greater the level of incorporation. […]

[2] = tested on: ffT-N3-cy3 incorporation into A template hairpin oligo 815; assay: Incorporation kinetics of ffT-N3-cy3 (NUNC tube assay, Michaelis plots); format: biochemical; conditions: 45° C., [DNA]<<[pol] or [ffNTP]
Protocol: The kinetic characterization of the enzymes was conducted using NUNC tube assay and involved the measurement of rate constants for the first order incorporation of ffT N3 cy3 where [DNA]<<[pol] or [ffNTP], at a variety of [ffTTP]. Below is described the methodology used for each of the three polymerases tested.
Six (1×8) NUNC nucleolink strips were functionalized with 2 pmoles of 5′-amino A template hairpin oligo 815 (5′ H2N-[…] ATGCACATCAGCG-3′) (SEQ ID NO: 18), according to the manufacturer's protocol.
Each strip was employed for a time-course experiment at a particular (ffT-N3-cy3). […]
Time-courses were initiated by addition of a 20 μl aliquot of 2× enzymology mix (X μM ffT-N3-cy3, 1.1 μM polymerase in enzymology buffer) pre-equilibrated at 45° C. for 2 minutes using an 8-channel multipipette in order to start reactions in individual wells at identical time-points. […] After reactions in all 8 wells stopped, strips were washed with […] high salt wash (10 mM Tris pH 8.0, 1 M NaCl, 10 mM EDTA) and then […] MilliQ water and then scanned on a Typhoon fluorescence imager (Cy3 filter, PMT=500 V). Fluorescence intensities in each well were quantified using Imagequant. Plotting the variation in Cy3 fluorescence intensity vs. time generates time-course graphs. […]

10A hairpin DNA [3] = assay: Single base incorporation assay for purified polymerases where [DNA] is greater than [pol]; format: biochemical; conditions: 4 nM purified enzyme, 2 μM ffT-N3-cy3
Protocol: The activity of the purified enzyme preparations of Clone 9 polymerase (YAV C223S exo-) and the thumb sub-domain mutants K705A, R713A and R743A was measured using the single base incorporation assay as described in WO 2005/024010. The experiment was carried out such that the respective concentrations of DNA and polymerase were at a ratio of approximately 5:1. Thus, the ability of the enzyme to incorporate nucleotides into multiple DNA template molecules in a single reaction cycle was investigated. 30 minute incubations were run with 4 nM purified enzyme in the presence of 20 nM 10A hairpin DNA (^32P-labelled) and 2 μM ffT-N3-cy3, aliquots of the reaction mixture were withdrawn at 0, 15, 30, 60, 180, 480, 900 and 1800 s intervals and run on a 12% acrylamide gel.
The band intensities were quantified using Imagequant and the fluorescence intensity, converted into percentage completion (based on the relative intensities of the starting material and final product bands on the gel) plotted versus incubation time to generate the timecourses shown in FIG. 5.

10A hairpin DNA [4] = assay: Single base incorporation assay, crude enzyme preparations (normalised concentrations); format: biochemical; conditions: first base incorporation of ffTTP
Protocol: The activity of the crude enzyme preparations (normalised concentrations) was measured using the single base incorporation assay as described in WO 2005/024010. 10 minute incubations were run with either 30 or 3 μg/ml crude enzyme preparation in the presence of 2 μM ffT-N3-cy3 and 20 nM 10A hairpin DNA (^32P-labelled), aliquots of the reaction mixture were withdrawn at 0, 30, 60, 180 and 600 s and run on a 12% acrylamide gel.
The band intensities were quantified using Imagequant and the fluorescence intensity plotted versus incubation time to generate the time-courses shown in FIG. 4.

Molecule	Kd (DNA) [nM]	improvement in level of incorporation over clone 9 [1] [%]	kpol [2] [s⁻¹]	amplitude of the burst (exponential) phase, percentage completion (10A hairpin DNA [3]; 20 nM 10A hairpin DNA (ratio 5:1)) [%]	observed rate constant kobs for the burst phase (10A hairpin DNA [3]; crude fitting of timecourses, 20 nM 10A hairpin DNA) [s⁻¹]	activity relative to YAV (in words) (10A hairpin DNA [4])
B1	0.05					
B2		~45	0.068	~90	~0.004	comparable activities to YAV
